The target of assay [1] is T1, fully oxidized LDL (UniProt P04114 28-4563, oxidatively modified with copper for 20 hours at 37 C (sites not given)).
T1 construct: Lipoprotein particle; also called fuOxLDL; FoxLDL
In words: phage ELISA on oxidized LDL. A general note: In an ELISA, binding on a coated surface is turned into a signal by an enzyme label.

Assay [2] deals with T2, LDL (unmodified low density lipoprotein) (UniProt P04114 28-4563).
T2 construct: Lipoprotein particle, not a pure protein; also called LDLs; unmodified LDL
In words: direct ELISA, lowest antigen amount at which detection was possible. How it is done: (§1) Antigen recognition activity of a purified single chain antibody was evaluated by direct ELISA. LDLs, acetylated LDLs, partially oxidized LDLs, and fully oxidized LDLs were used as antigens. 0.05 to 10 μg/ml of antigen solution was added to a polystyrene 96-well microwell plate at 100 μl/well and allowed to adsorb overnight at 4° C. The plate was washed three times with PBS (200 μl/well). Blocking buffer (0.25% BSA/PBS) was added at 200 μl/well. The mixture was left standing for 2 hours at room temperature. After the plate was washed three times with PBS (200 μl/well), 2.5 μg/ml/PBS single chain antibody was added at 100 μl/well and reacted for 1 hour at room temperature. The plate was washed five times with PBS (200 μl/well) and anti-His-HRP antibody diluted 1000-fold with blocking buffer was added at 100 μl/well and reacted for 1 hour at room temperature. After washing the plate five times with PBS (200 μl/well), 3,3′,5,5′-tetramethyl-benzidine (TMB) was added at 50 μl/well. The luminescence was examined and 150μ/well of 1N HCl was added to suspend the reaction. Subsequently, the absorbance at 450 nm for each well of the plate was measured (FIG. 11).
(§2) The detection limit was calculated as the detection limit at the lowest concentration at which detection was possible in measured specimens at different dilution levels.

The target in assay [3] is T3, partially oxidized LDL (UniProt P04114 28-4563, oxidatively modified with copper for 4 hours at 37 C (sites not given)).
T3 construct: Lipoprotein particle; also called moOxLDL; moLDL
The description is as above. How it is done: as §1, §2

The target of assay [4] is T4, acetylated LDL (UniProt P04114 28-4563, acetylated (sites not given)).
T4 construct: Lipoprotein particle; also called AcLDL; Ac LDLs
T4 sequence (P04114 28-4563): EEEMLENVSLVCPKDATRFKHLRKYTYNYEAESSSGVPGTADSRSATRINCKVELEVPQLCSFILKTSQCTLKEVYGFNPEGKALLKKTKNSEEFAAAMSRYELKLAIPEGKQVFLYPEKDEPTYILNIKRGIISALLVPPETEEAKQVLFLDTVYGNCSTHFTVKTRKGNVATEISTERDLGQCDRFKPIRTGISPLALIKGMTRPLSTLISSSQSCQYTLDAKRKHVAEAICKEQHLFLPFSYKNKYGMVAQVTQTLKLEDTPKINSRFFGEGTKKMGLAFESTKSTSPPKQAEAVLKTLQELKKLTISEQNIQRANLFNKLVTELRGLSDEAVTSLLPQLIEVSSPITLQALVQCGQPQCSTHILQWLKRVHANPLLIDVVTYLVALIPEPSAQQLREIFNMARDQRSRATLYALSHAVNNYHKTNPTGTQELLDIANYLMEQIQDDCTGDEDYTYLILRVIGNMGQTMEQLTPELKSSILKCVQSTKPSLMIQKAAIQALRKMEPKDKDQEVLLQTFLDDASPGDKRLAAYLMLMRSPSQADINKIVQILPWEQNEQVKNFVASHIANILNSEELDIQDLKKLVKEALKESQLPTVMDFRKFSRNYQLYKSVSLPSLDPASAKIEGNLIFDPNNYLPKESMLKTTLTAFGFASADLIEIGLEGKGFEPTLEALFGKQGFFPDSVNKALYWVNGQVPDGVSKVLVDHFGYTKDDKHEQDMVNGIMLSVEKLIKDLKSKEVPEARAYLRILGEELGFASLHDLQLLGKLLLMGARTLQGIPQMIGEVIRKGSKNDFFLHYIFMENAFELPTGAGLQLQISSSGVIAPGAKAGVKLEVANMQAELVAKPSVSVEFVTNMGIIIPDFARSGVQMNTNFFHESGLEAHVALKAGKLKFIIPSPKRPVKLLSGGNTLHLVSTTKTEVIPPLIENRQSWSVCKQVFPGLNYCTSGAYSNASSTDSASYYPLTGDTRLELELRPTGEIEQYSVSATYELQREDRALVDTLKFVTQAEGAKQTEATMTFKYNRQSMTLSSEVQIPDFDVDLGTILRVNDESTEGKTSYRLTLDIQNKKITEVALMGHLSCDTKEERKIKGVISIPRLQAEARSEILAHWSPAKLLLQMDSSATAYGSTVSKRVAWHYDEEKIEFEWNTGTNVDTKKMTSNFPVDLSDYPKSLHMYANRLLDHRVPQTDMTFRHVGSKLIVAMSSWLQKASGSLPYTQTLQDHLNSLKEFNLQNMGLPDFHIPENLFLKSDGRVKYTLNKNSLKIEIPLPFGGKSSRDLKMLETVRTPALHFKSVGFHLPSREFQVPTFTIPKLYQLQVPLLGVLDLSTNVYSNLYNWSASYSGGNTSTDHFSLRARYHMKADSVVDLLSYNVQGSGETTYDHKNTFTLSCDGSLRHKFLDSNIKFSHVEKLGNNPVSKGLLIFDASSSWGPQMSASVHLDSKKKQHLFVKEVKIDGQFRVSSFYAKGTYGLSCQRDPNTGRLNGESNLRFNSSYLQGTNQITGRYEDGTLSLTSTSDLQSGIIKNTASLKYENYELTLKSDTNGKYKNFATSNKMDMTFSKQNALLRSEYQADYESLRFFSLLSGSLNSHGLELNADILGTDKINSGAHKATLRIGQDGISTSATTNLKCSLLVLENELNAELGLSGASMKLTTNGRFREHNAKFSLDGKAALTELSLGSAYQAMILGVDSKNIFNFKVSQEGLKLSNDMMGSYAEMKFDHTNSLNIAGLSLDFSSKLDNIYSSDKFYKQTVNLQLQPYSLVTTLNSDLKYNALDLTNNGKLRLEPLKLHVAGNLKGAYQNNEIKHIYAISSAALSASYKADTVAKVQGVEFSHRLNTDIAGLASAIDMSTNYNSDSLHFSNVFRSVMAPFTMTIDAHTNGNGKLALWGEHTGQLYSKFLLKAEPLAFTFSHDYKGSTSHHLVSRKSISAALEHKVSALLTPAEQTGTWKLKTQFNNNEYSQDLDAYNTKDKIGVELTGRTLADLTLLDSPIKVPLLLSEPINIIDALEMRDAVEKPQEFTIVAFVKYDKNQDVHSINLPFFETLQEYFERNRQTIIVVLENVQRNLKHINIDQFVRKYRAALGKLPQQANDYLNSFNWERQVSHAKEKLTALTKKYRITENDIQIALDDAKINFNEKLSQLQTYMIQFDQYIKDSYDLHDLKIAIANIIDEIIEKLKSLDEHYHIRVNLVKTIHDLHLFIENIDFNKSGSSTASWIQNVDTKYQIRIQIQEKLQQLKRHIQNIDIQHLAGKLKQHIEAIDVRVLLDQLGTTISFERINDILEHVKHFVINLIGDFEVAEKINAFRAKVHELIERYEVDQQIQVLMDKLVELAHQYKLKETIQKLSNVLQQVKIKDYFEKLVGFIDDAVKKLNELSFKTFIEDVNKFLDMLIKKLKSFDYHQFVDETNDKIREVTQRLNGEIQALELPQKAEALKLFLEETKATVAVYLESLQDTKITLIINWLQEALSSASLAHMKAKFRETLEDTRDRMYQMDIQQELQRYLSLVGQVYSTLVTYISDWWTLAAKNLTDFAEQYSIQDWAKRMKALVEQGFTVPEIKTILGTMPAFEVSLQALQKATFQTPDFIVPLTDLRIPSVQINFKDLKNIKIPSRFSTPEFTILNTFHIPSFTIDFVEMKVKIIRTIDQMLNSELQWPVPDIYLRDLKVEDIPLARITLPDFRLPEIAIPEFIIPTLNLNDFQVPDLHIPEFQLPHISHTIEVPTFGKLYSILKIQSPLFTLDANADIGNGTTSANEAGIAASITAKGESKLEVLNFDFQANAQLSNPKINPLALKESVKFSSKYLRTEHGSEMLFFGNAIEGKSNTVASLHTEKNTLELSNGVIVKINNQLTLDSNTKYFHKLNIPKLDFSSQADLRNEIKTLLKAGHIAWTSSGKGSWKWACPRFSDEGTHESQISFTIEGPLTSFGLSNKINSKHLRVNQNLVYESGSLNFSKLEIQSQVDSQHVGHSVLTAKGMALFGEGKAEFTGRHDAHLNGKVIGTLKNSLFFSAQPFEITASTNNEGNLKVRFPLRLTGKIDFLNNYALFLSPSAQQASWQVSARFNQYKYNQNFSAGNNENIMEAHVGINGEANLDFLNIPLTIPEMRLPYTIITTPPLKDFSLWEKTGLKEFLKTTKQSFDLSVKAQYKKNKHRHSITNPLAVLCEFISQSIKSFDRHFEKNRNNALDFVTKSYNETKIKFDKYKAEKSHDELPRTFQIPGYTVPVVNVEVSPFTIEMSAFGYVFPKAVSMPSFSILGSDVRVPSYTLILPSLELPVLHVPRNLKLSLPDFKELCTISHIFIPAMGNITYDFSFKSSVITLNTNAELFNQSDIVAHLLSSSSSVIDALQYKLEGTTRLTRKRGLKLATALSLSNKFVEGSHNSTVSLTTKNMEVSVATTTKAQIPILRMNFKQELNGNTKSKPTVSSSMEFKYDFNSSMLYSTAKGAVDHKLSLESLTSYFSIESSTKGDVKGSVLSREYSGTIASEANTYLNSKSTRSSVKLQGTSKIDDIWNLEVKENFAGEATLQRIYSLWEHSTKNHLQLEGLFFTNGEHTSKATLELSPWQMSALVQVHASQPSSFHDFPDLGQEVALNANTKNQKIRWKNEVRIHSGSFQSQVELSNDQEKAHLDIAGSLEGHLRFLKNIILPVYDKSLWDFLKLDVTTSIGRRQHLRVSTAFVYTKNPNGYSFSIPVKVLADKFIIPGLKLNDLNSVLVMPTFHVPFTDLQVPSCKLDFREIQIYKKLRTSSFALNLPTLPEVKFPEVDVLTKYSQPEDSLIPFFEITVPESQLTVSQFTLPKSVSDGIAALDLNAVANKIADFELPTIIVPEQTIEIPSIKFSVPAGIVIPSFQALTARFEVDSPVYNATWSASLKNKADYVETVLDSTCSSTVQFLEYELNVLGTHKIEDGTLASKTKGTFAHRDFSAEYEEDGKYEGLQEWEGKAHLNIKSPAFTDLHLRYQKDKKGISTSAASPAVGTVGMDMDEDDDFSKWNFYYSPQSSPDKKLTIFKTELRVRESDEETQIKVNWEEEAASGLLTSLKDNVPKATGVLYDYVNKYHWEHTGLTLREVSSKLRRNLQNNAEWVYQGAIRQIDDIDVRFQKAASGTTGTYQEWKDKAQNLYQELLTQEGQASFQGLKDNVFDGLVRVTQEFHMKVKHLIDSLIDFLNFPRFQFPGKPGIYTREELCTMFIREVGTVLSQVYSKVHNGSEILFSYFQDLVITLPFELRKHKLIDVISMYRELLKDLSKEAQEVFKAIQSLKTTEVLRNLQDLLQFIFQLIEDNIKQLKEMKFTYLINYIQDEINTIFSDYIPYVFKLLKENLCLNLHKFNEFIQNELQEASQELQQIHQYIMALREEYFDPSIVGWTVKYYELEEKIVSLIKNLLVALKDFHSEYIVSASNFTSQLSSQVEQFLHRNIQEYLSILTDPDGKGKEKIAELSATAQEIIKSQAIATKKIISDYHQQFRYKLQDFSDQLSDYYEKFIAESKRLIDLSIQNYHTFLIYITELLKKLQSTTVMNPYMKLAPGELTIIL
The assay is described as above. As to the method: as §1, §2

Assay [5] has as its target T1, fully oxidized LDL. Described as above. How it is done: as §1, §2
Assay [6] concerns the target T5, F-AGE (AGEs prepared by fructose treatment of BSA) (bovine, UniProt P02769 25-607, glycated by fructose, 37 C for 12 weeks (sites not given)).
T5 construct: also called F-AGEs; fructose treated BSA
Nature of the assay: SPR single cycle kinetics, biotinylated sRAGE on a streptavidin (SA) chip, F-AGE as analyte.

Usually Kd stands for the constant that tells how readily two partners part at equilibrium.

A value given as a limit tells only on which side of the number the result lay.

T1 sequence (P04114 28-4563): as above
T5 sequence (P02769 25-607 limits assumed): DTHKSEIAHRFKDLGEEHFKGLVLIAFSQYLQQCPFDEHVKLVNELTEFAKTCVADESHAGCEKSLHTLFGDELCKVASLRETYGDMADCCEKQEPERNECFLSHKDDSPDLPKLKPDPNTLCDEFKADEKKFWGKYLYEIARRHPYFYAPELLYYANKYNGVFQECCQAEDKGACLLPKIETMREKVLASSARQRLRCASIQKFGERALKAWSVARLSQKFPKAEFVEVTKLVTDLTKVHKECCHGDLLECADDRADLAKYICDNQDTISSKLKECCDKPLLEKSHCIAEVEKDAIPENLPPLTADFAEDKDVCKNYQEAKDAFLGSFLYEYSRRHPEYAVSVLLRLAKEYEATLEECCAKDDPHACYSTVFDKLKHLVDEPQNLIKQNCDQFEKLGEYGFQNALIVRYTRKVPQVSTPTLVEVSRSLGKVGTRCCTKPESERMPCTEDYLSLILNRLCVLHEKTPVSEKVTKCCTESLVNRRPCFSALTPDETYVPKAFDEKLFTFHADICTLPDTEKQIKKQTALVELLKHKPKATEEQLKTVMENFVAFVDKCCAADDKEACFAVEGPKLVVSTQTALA

B1: single chain antibody γ+κ 96, pCANTAB5E clone 96 (phage presented and soluble forms) (scFv)
scFv: MAEVQLVESGAEAKKPGESLKISCKGSGYSFTTNWIGWVRQLPGKGLDWMGIIYPDDSDTRYSPSFQGQVTISADKSISTAYLQWNSLKASDTAMYYCARRQWGSFDLWGQGTMVTVSSGGGGSGGGGSGGGGSEIVLTQSPATLSLSPGERATLSCRASQSVSSFLAWYQQKPGQAPRLLIYGASSRATGIPDRFSGSGSGTDFTLTINRLEPEDFAVYYCQYYGSSGTFGQGTKVEIKR
notes: not shown: C-terminal E tag from pCANTAB5E
In the case of B1, in assay [1], the A450 was no less than 0.6 A450.

B2: single chain antibody γ+κ 5 expressed from pET-22b(+) in E. coli BL21 (DE3), refolded and purified (scFv)
scFv: MAQVQLQQSGPGLVKPSQTLSLTCAISGDSVSSRDAAWNWIRQSPSRGLEWLGRTYYRSEWYTDYAVSLESRLTVNPDTSRNQFSLQLNSVTPEDTAVYLCARGSSWGHAPAFFDYWGQGTLVTVSSGGGGSGGGGSGGGGSDIQMTQSPSSLSASVEDRVAITCRASQSVSTYVAWYQQKPGKAPKLLISQASSLENGVPSRFSGSGSGTDFTLTISSLQPEDFATYYCQQYTTYPYTFGQGTKLEIKR
notes: Human scFv (VH gamma - linker - V kappa) from a spleen library; detected through its His tag with anti-His-HRP; also called clone No. 5; purified single chain antibody; not shown: C-terminal His tag from pET-22b(+) (XhoI cloning)
For B2, the detection limit came out at 5 ng/100 µl well in assay [2], 10 ng/100 µl well in assay [3], 10 ng/100 µl well in assay [4] and 20 ng/100 µl well in assay [5].

B3: single chain antibody γ+κ 5, pCANTAB5E clone 5 (phage presented and soluble forms) (scFv)
scFv: B2 scFv
notes: the phage-presented and the soluble form are kept under one id, the assay field tells which was used; not shown: C-terminal E tag from pCANTAB5E (phage form: fused to the phage coat protein)
Turning to B3, in assay [1], the A450 was no less than 0.6 A450.

B4: silkworm form biotinylated sRAGE (silkworm coexpressing BirA, biotin feed, Example 19) (receptor)
chain: GHHHHHHHHHHSSGHIDDDDKHMAQNITARIGEPLVLKCKGAPKKPPQRLEWKLNTGRTEAWKVLSPQGGGPWDSVARVLPNGSLFLPAVGIQDEGIFRCQAMNRNGKETKSNYRVRVYQIPGKPEIVDSASELTAGVPNKVGTCVSEGSYPAGTLSWHLDGKPLVPNEKGVSVKEQTRRHPETGLFTLQSELMVTPARGGDPRPTFSCSFSPGLPRHRALRTAPIQPRVWEPVPLEEVQLVVEPEGGAVAPGGTVTLTCEVPAQPSPQIHWMKDGVPLPLPPSPVLILPEIGPQDQGTYSCVATHSSHGPQESRAVSISIIEPGEEGPTAGSRSGAGTPVTAPLAGTIWKVLASEGQTVAAGEVLLILEAMKMETEIRAAQAGTVRGIAVKAGDAVAVGDTLMTLAGTKLGPEQKLISEEDLNSAVDHHHHHH
modifications: a single biotin on the biotinylation tag; silkworm form N-linked sugar chains at two sites
notes: also called Biotin tag sRAGE; Biotin-RAGE
With B4, in assay [6], the affinity, expressed as Kd, was 220 nM.

B5: single chain antibody γ+κ 19, pCANTAB5E clone 19 (phage presented and soluble forms) (scFv)
scFv: MAEVQLVESGAEVKNPGASVKVSCKASGYTLTGYYMHWVRQAPGQGLEWMGGIIPMYGTPTYAPRFQGRVTFTADYSTNTVYMELRSLRSEDTAVFYCARQADSASYLDYWGQGTLVTVSSGGGGSGGGGSGGGGSDVVMTQSPGTLSLSPGERATLSCRASQSLDSSYLAWYQQKPGRAPRLLIYGASDRDTGIPDRFSGSGSGTDFTLTISRLEPEDFAVYYCQQYGRSRTFGQGTKLEIKR
notes: as for B1
For B5, in assay [1], the A450 is no less than 0.6 A450.

B6: E. coli form biotinylated sRAGE (Comparative Example 2) (receptor)
chain: AQNITARIGEPLVLKCKGAPKKPPQRLEWKLNTGRTEAWKVLSPQGGGPWDSVARVLPNGSLFLPAVGIQDEGIFRCQAMNRNGKETKSNYRVRVYQIPGKPEIVDSASELTAGVPNKVGTCVSEGSYPAGTLSWHLDGKPLVPNEKGVSVKEQTRRHPETGLFTLQSELMVTPARGGDPRPTFSCSFSPGLPRHRALRTAPIQPRVWEPVPLEEVQLVVEPEGGAVAPGGTVTLTCEVPAQPSPQIHWMKDGVPLPLPPSPVLILPEIGPQDQGTYSCVATHSSHGPQESRAVSISIIEPGEEGPTAGSGLNDIFEAQKIEWHE
notes: Not glycosylated; expressed in Origami B (DE3) together with a biotin ligase; also called E. coli form sRAGE; purified soluble biotinylated RAGE; not shown: His tag present at the N-terminus
Turning to B6, in assay [6], the Kd amounted to 280 nM.

B7: single chain antibody γ+κ 12, pCANTAB5E clone 12 (phage presented and soluble forms) (scFv)
scFv: MAQVQLQQSGPGLVKPSQTLSLTCDISGDSISTNGAAWNWIRQSPSRGLEWLGRTFYRSKWYNDYAVSVKSRMIINPDTSKNQFSLQLSSVTPEDTAVYYCARVACSGGTCLDGIDVWGQGTTVTVSSGGGGSGGGGSGGGGSDIVMTQSPSSLSASVGERVTITCRASQAIRNDLGWYQQKPGKAPKLLVYSASNLQSGVPSRFSGSGSGTDFTLTISSLQPEDFATYYCQQYHSYPRTFSQGTKLEIKR
notes: as for B1
In assay [1], B7 gave an A450 of no less than 0.6 A450.

B8: single chain antibody γ+κ 40, pCANTAB5E clone 40 (phage presented and soluble forms) (scFv)
scFv: MAQVQLVQSGVELRKPGDSVKVSCKASGYSVNTHGMSWVRQAPGQGLEWLGRISSYIGLTKFAQKFQDRVTLTTDTSTNTAYLEMRSLKSDDTAVYFCGRDDYEYDAFDVWGQGTMVTVSSGGGGSGGGGSSGGGSEIVLTQSPATLSVSPGERATLSCRTTESVTDSQLAWYQQKPGQAPRLLIYGPSTRATGIPDRFSGSGSGTDFTLTISGLEPEDFAVYYCQQRNSWYTFGQGTKLEIKR
notes: as for B1
The molecule B8 registered an A450 in assay [1] of no less than 0.6 A450.

The record behind these values is patent publication US20170354129A1 (NATIONAL AGRICULTURE AND FOOD RESEARCH ORGANIZATION, published 2017).
